Reference: PMC10325900, “A conserved motif in the disordered linker of human MLH1 is vital for DNA mismatch repair and its function is diminished by a cancer family mutation” (Nucleic Acids Research, 2023)
Substitutions are numbered along the chain they refer to. “Also recorded” adds a separate entry of the source.

B1: p.Arg385Tyr: MLH1 variant (protein, UniProt P40692 2-756, looked up, variant R385Y)
DNA mismatch repair protein …: SFVAGVIRRLDETVVNRIAAGEVIQRPANAIKEMIENCLDAKSTSIQVIVKEGGLKLIQIQDNGTGIRKEDLDIVCERFTTSKLQSFEDLASISTYGFRGEALASISHVAHVTITTKTADGKCAYRASYSDGKLKAPPKPCAGNQGTQITVEDLFYNIATRRKALKNPSEEYGKILEVVGRYSVHNAGISFSVKKQGETVADVRTLPNASTVDNIRSIFGNAVSRELIEIGCEDKTLAFKMNGYISNANYSVKKCIFLLFINHRLVESTSLRKAIETVYAAYLPKNTHPFLYLSLEISPQNVDVNVHPTKHEVHFLHEESILERVQQHIESKLLGSNSSRMYFTQTLLPGLAGPSGEMVKSTTSLTSSSTSGSSDKVYAHQMVYTDSREQKLDAFLQPLSKPLSSQPQAIVTEDKTDISSGRARQQDEEMLELPAPAEVAAKNQSLEGDTTKGTSEMSEKRGPTSSNPRKRHREDSDVEMVEDDSRKEMTAACTPRRRIINLTSVLSLQEEINEQGHEVLREMLHNHSFVGCVNPQWALAQHQTKLYLLNTTKLSEELFYQILIYDFANFGVLRLSEPAPLFDLAMLALDSPESGWTEEDGPKEGLAEYIVEFLKKKAEMLADYFSLEIDEEGNLIGLPLLIDNYVPPLEGLPIFILRLATEVNWDEEKECFESLSKECAMFYSIRKQYISEESTLSGQQSEVPGSIPNSWKWTVEHIVYKALRSHILPPKHFTEDGNILQLANLPDLYKVFERC
B2: p.Arg385Glu: MLH1 control variant (protein, UniProt P40692 2-756, looked up, variant R385E)
DNA mismatch repair protein …: B1 DNA mismatch repair protein … with Y384E
B3: p.Arg385Ala: MLH1 control variant (protein, UniProt P40692 2-756, looked up, variant R385A)
DNA mismatch repair protein …: B1 DNA mismatch repair protein … with Y384A
B4: p.Arg385His: human MLH1 missense variant, c.1154G>A (protein, UniProt P40692 2-756, looked up, variant R385H)
DNA mismatch repair protein …: B1 DNA mismatch repair protein … with Y384H
B5: p.Tyr379Cys: human MLH1 missense variant, c.1136A>G (protein, UniProt P40692 2-756, looked up, variant Y379C)
DNA mismatch repair protein …: B1 DNA mismatch repair protein … with Y378C, Y384R
B6: p.Val384Asp: human MLH1 missense variant, c.1151T>A (protein, UniProt P40692 2-756, looked up, variant V384D)
DNA mismatch repair protein …: B1 DNA mismatch repair protein … with V383D, Y384R

Test system: G-T mismatch in a test plasmid
Assay: MMR activity of MLH1 variants (MLH1-PMS2 expressed in HEK293T cells)
Format: biochemical, human
Conditions: >3 independent experiments; for DNA mismatch repair activity of MLH1 variant (in words): variant MLH1 + PMS2 transfected in HEK293T, relative to wildtype, 37°C, 15 min; for effect of second p.Arg385 alteration on the MMR defect of p.Tyr750Arg: double variants (Figure 6D)
Description: Sequence variants of the MLH1 expression vector were generated using the Q5 site directed mutagenesis system (New England Biolabs, Ipswich, MA, USA) with the appropriate primers (Supplementary Table S1).
Mismatch repair activity was assessed as described in detail before ([79],[81]) (Supplementary Figure S3). […] Mismatched DNA plasmid substrate (Supplementary Figure S3) prepared according to previously published procedures ([81–83]) was added, and reactions in a final volume of 25 μl were incubated at 37°C for 15 min. Repair efficiency was scored by purifying the mismatched DNA plasmid from the reaction and assessing the fraction of homoduplex sequence by restriction digestion of the mismatched site using EcoRV. The substrate was additionally linearized with AseI.
Figure 2. Expression and DNA mismatch repair activity of human and artificial ConMot variants. […] As a negative control, one sample was only transfected with an EGFP. After 48 h, native whole cell protein extracts were prepared. Expression was assessed by SDS-PAGE and western blotting. (A) Representative western blot of MLH1 wildtype and variant expressions. Average expression levels of MLH1 of > 5 independent transfections were determined and are given in the bar diagram below. (B) The extracts of the transfections were used to assess the DNA mismatch repair activities of the variant MLH1 proteins in comparison with wildtype (WT) MLH1-PMS2 as detailed in Materials and Methods and as shown in Supplementary Figure S3. The EGFP-transfected extract sample served as negative control. Representative agarose gels are shown in the top panel.
Figure 3. Analysis of the relevance of ConMot core and surrounding sequences. MLH1 proteins containing either the wildtype human ConMot motif sequence or variants were directly compared concerning expression and MMR activity. (A) Comparison of the ConMot variants used: the core-scramble variant sequence, the full-scramble variant sequence and an animal-plant hybrid that contains the ConMot consensus sequence of plants as it exists, for example, in walnut and mungo bean (Vigna radiata and Juglans regia). (B) Comparison of conservation in the animal versus plant ConMot in WebLogo representation. Specific differences in conservation within the sequences flanking the core MVRTD sequence are marked by red arrows above the animal sequence. (C) Western blot of the expression of the different MLH1-ConMot wildtype (WT) and the variants shown in A after transfection in HEK293T cells; negative control: transfection of EGFP. (D) MMR activities were assessed in direct comparison to negative control and wildtype human MLH1 as in Figure 2B. Average activities and standard deviations were calculated from >3 independent experiments.
Figure 6. The MMR defect of p.Tyr750Arg is partly compensated by p.Arg385Tyr. […] (B) The side chain of the highly conserved Arg385 is predicted to be in proximity to the side chain of the highly conserved Tyr750 residue. (C) MLH1-PMS2-deficient HEK293T cells were co-transfected with the indicated single- and double variants of MLH1 and PMS2. Protein extracts were prepared, separated by SDS-PAGE, blotted and probed for MLH1 protein expression. (D) MMR assays were performed to test DNA mismatch repair activity as detailed in Materials and Methods. One representative agarose gel is shown, and average repair values in comparison to wildtype and standard deviations of >3 independent experiments are shown in a bar diagram. A two-sided t-test was performed for testing significance of the difference in repair activity of p.Tyr750Arg in comparison to the double variant p.Arg385Tyr + Tyr750Arg.
Mismatched DNA plasmid substrate and principle of MMR assay.
The MMR assay is performed using as substrate a modified 2 kbp derivative of the pUC vector (pUC
CPDC Bb v) originally generated by Wang and Hays and further modified by Plotz et al. and Gonzáles-
Acosta et al . […]

Row | Molecule | DNA mismatch repair activity of MLH1 variant (in words) | further results
1 | ΔConMot: deletion variant in which the conserved ConMot sequence comprising 20 residues was removed | fully abrogated mismatch repair | DNA mismatch repair activity of MLH1 variant (in words) (listed as deletion): complete loss of MMR activity; DNA mismatch repair activity of MLH1 variant (in words) (listed as deletion of the ConMot): fully deficient in MMR
2 | p.Arg385Pro: human MLH1 missense variant in the MVRTD motif | a defect similarly strong as the core-scramble variant; also recorded: most pronounced effect; also recorded: mismatch repair defect | DNA mismatch repair activity of MLH1 variant (in words) (listed as proline substitution of Arg385): loss of mismatch repair activity
3 | B1 | well tolerated | –
4 | B2 | a defect similarly strong as the core-scramble variant | effect of second p.Arg385 alteration on the MMR defect of p.Tyr750Arg: additionally aggravated the defect
5 | B3 | a defect similarly strong as the core-scramble variant | effect of second p.Arg385 alteration on the MMR defect of p.Tyr750Arg: additionally aggravated the defect
6 | B4 | tolerated; also recorded: did not affect catalytic activity | –
7 | B5 | did not find a catalytic defect | –
8 | B6 | no detectable impairment of MMR | –
